Consider 84 variants from the RNAGym collection of RNA variant scans (doi:10.1093/molbev/msab373).

B1: Azoarcus group I ribozyme (parent)
chain: GUGCCUUGCGCCGGGAAACCACGCAAGGGAUGGUGUCAAAUUCGGCGAAACCUAAGCGCCCGCCCGGGCGUAUGGCAACGCCGAGCCAAGCUUCGGCGCCUGCGCCGAUGAAGGUGUAGAGACUAGACGGCACCCACCUAAGGCAAACGCUAUGGUGAAGGCAUAGUCCAGGGAGUGGCGAAAGUCACACAAACCGG

This data set covers variants of B1. Put plainly: reverse-splicing fitness (ratio to wild type); higher = more active; in vitro selection; Mg2+ level not given. Summed up:
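An in vitro group I ribozyme library with randomized positions was T7-transcribed and gel-purified. In triplicate, 10 pmol RNA in EPPS pH 7.5 was reacted with 50 pmoles of a 30-nt RNA substrate for 1 h at 37 °C across several added MgCl2 levels (1–48 mM), then stopped with EDTA. Products were reverse transcribed from a substrate-complementary primer, PCR-amplified and sequenced (HiSeq 4000). Fitness is a variant's read proportion after selection over that before, normalised to wild type.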
As for A120C A145U C150G, the reverse-splicing fitness worked out at 0.262.

For the variant C82G A111U A120G C150U, the reverse-splicing fitness amounted to 0.0127.

Take C82U A111C A120U A145C C169U: the reverse-splicing fitness was found to be 0.0039.

On to A111U A120C C150A, for which the reverse-splicing fitness turned out to be 0.0636.

As to A120C A145G C150G, the reverse-splicing fitness stood at 0.234.

For the variant C82G A111C A120U C150A C169U U176G, the reverse-splicing fitness turned out to be 0.00298.

On to A111U A120U C150G C169U U176A, for which the reverse-splicing fitness amounted to 0.00272.

Regarding A120C C150G U176A, the reverse-splicing fitness was determined as 0.0876.

Consider C82A A111U A120G C150U U176A, for which the reverse-splicing fitness was 0.0109.

Take C82G A111C A120G A145G C169A U176G: the reverse-splicing fitness amounted to 0.00447.

In the case of A111G A120C C150A C169G U176C, the reverse-splicing fitness was found to be 0.0196.

As to C82G A111U A120U A145C C150G U176C, the reverse-splicing fitness is 0.00425.

For the variant A111U A145C U176A, the reverse-splicing fitness came out at 0.757.

Regarding A120C A145U U176A, the reverse-splicing fitness is 0.726.

On to C82U A111C A120U C150G C169G U176G, for which the reverse-splicing fitness was 0.00254.

Regarding C82A A120C A145U C150G C169A U176A, the reverse-splicing fitness amounted to 0.0116.

With C82U A111U A120U A145C C169A, the reverse-splicing fitness worked out at 0.00225.

Take C82U A111G A120C A145G C150G U176A: the reverse-splicing fitness worked out at 0.00545.

Regarding C82A A111G A145C C150A U176G, the reverse-splicing fitness was 0.00802.

Turning to C82U A111U A120G A145C C169G U176A, the reverse-splicing fitness was 0.0262.

On to C82G A145C C150G C169U U176G, for which the reverse-splicing fitness was found to be 0.00486.

For the variant A111G A120C A145C C150U C169U U176G, the reverse-splicing fitness is 0.00415.

For C82A A145C C150G U176C, the reverse-splicing fitness worked out at 0.0535.

Consider A111C A120U A145U C150A C169G U176C, for which the reverse-splicing fitness was 0.00388.

On to A145U C150U U176G, for which the reverse-splicing fitness came to 0.342.

On to C82A A120G A145C C150A C169A U176G, for which the reverse-splicing fitness amounted to 0.00399.

On to C82G A111C A145C C150A C169G U176G, for which the reverse-splicing fitness is 0.00878.

For C82G A111U A120G A145G C150A C169U, the reverse-splicing fitness amounted to 0.00945.

For C82G A111G A120U A145U C169A, the reverse-splicing fitness was 0.00239.

Regarding C82G A111C A145C C150G C169U U176C, the reverse-splicing fitness amounted to 0.0102.

For the variant C82U A120G C150G C169G, the reverse-splicing fitness turned out to be 0.0077.

In the case of A111C A120C A145U C169G U176C, the reverse-splicing fitness worked out at 0.0123.

Turning to A111G A145U C150G C169A U176C, the reverse-splicing fitness was 0.00907.

As for C82G A120C A145C C150A C169A U176C, the reverse-splicing fitness was 0.00645.

As to C82G A120C A145C C150A C169A U176G, the reverse-splicing fitness was 0.00522.

As for C82U A111C A120U A145G C150A C169G U176C, the reverse-splicing fitness is 0.00549.

As to C82U A111G A145U C150A, the reverse-splicing fitness was found to be 0.0335.

Turning to A111G A120C A145G C150U C169A U176G, the reverse-splicing fitness is 0.00456.

Consider C82G A111C A120G A145G C150A C169U U176C, for which the reverse-splicing fitness was found to be 0.0159.

For C82G A111G A145C C169G U176G, the reverse-splicing fitness was determined as 0.00501.

Turning to C82U A111U A145C C169G U176C, the reverse-splicing fitness stood at 0.0126.

Take C82A A111U A145G C150U U176C: the reverse-splicing fitness was 0.115.

C82A A111G A145U C150A C169G U176G: the reverse-splicing fitness came to 0.00624.

C82G A120C A145G C150A C169G U176G: the reverse-splicing fitness worked out at 0.0054.

Take C82G A111U A120U A145C C150A: the reverse-splicing fitness was found to be 0.00458.

As for C82A A111C A120C C150G C169U, the reverse-splicing fitness was found to be 0.0115.

As to C82U A111U A145G C150A C169U U176G, the reverse-splicing fitness is 0.00658.

As to A111C A120G A145U C150U, the reverse-splicing fitness amounted to 0.113.

Regarding C82U A111G A120U A145U C150G U176A, the reverse-splicing fitness is 0.00344.

As to C82A A145U C150U U176C, the reverse-splicing fitness was found to be 0.324.

With C82U A111C A120G A145U C150A C169G, the reverse-splicing fitness was 0.00681.

For the variant C82G A111C A120C A145C C150G C169A U176C, the reverse-splicing fitness was determined as 0.00796.

Turning to C82G A111G A120G A145U C169A U176G, the reverse-splicing fitness was 0.00446.

Regarding C82U A111G A120G A145C C150G C169G U176G, the reverse-splicing fitness was 0.00399.

With C82A A111C A120U A145G C150G U176C, the reverse-splicing fitness was 0.00851.

In the case of C82G A120U A145G C150U C169A U176C, the reverse-splicing fitness was determined as 0.0027.

With C82A A111C A145U C150G, the reverse-splicing fitness was 0.0181.

For the variant C82U A120C A145G C150G C169A U176A, the reverse-splicing fitness came to 0.0124.

Regarding C82A A111C A120U A145G C150A U176G, the reverse-splicing fitness is 0.00381.

As for A111U A120G A145U C150G C169U U176A, the reverse-splicing fitness worked out at 0.0147.

Regarding C82U A111G A120U A145G C150G C169G U176G, the reverse-splicing fitness came out at 0.00255.

In the case of C82U A111U A120U A145U C169U, the reverse-splicing fitness came out at 0.0039.

On to C82A A111G A145G C150G C169U, for which the reverse-splicing fitness turned out to be 0.00932.

Turning to C82A A120G C150U C169A U176C, the reverse-splicing fitness was 0.0163.

Regarding C82U A111G A120C A145C C150G C169U U176C, the reverse-splicing fitness was determined as 0.0112.

In the case of C82A A111G A120U A145G C150U U176G, the reverse-splicing fitness worked out at 0.00409.

As for A111G A120U A145U C169G U176C, the reverse-splicing fitness is 0.0178.

As to A120G A145G C169U U176C, the reverse-splicing fitness stood at 0.199.

Regarding A120G A145U U176C, the reverse-splicing fitness amounted to 0.269.

With C82U A111G A120C A145C C150U C169G, the reverse-splicing fitness came out at 0.0077.

Consider C82A A111C A120U A145U C169A, for which the reverse-splicing fitness stood at 0.00297.

Turning to C82U A111G A120C A145U C150A C169A U176C, the reverse-splicing fitness was 0.00758.

As for C82A A111G A120C A145G C169G U176A, the reverse-splicing fitness came to 0.0216.

Consider C82U A120U A145U C150U C169G U176A, for which the reverse-splicing fitness is 0.00254.

In the case of A111G A120U A145C C150G C169U U176C, the reverse-splicing fitness turned out to be 0.0023.

Take C82G A111C A120C C150G C169A U176A: the reverse-splicing fitness stood at 0.00918.

Consider A111C A120U A145U C169A, for which the reverse-splicing fitness was 0.00546.

In the case of C82A A111C A120U A145U C150G U176G, the reverse-splicing fitness came out at 0.00259.

For A111G A120G C169G U176G, the reverse-splicing fitness worked out at 0.00692.

In the case of C82U A111G A120U A145G C150A C169A, the reverse-splicing fitness turned out to be 0.00559.

As for A111U A120G A145U C150U C169A, the reverse-splicing fitness was 0.0657.

As for C82A A111U A120C A145C C150G C169A, the reverse-splicing fitness stood at 0.00897.

For the variant C82U A120U A145C C150G C169A U176A, the reverse-splicing fitness turned out to be 0.00201.

As to C82G A111G A120G A145G C150G C169G U176G, the reverse-splicing fitness was found to be 0.0063.
